To fix the notation:
B1: L-asparaginase Tli10209 (Thermococcus litoralis DSM 5473; D50G/T70A) (protein)
chain: MSEKRKLERRGAEDMKRILIIGTGGTIASAKTDAGFKSVLTIDEILEKAGIKLKNGYEIDTRNILNIDSALIQPEDWERIAKEVYKALEDYDGIVITHGTDTLAYTASMLTFMIRGINKPVVLTGSMRPVTEEESDAPRNLKAAIRFAMEDVSGIFVAFMDKIMLGCRTSKIRALGLNAFMSINYPDVAYVKGEEVIYNLPQKRFKPKGEPVLDTKYEPRVVFIRLTPGLDGNAIDALVKAGYRGIVLEGYGAGGIPYRKRDILSKIREITPQIPVVMTTQALYDGVDLTKYEVGRKALEAGIIPAKDMTKETTITKLMWALGHTKNVEEVKEIMHTNYADEIEG
B2: L-asparaginase Tli10209 (Thermococcus litoralis DSM 5473) (protein)
chain: MSEKRKLERRGAEDMKRILIIGTGGTIASAKTDAGFKSVLTIDEILEKADIKLKNGYEIDTRNILNIDSTLIQPEDWERIAKEVYKALEDYDGIVITHGTDTLAYTASMLTFMIRGINKPVVLTGSMRPVTEEESDAPRNLKAAIRFAMEDVSGIFVAFMDKIMLGCRTSKIRALGLNAFMSINYPDVAYVKGEEVIYNLPQKRFKPKGEPVLDTKYEPRVVFIRLTPGLDGNAIDALVKAGYRGIVLEGYGAGGIPYRKRDILSKIREITPQIPVVMTTQALYDGVDLTKYEVGRKALEAGIIPAKDMTKETTITKLMWALGHTKNVEEVKEIMHTNYADEIEG
B3: L-asparaginase Tli10209 (Thermococcus litoralis DSM 5473; K48L/T70A) (protein)
chain: MSEKRKLERRGAEDMKRILIIGTGGTIASAKTDAGFKSVLTIDEILELADIKLKNGYEIDTRNILNIDSALIQPEDWERIAKEVYKALEDYDGIVITHGTDTLAYTASMLTFMIRGINKPVVLTGSMRPVTEEESDAPRNLKAAIRFAMEDVSGIFVAFMDKIMLGCRTSKIRALGLNAFMSINYPDVAYVKGEEVIYNLPQKRFKPKGEPVLDTKYEPRVVFIRLTPGLDGNAIDALVKAGYRGIVLEGYGAGGIPYRKRDILSKIREITPQIPVVMTTQALYDGVDLTKYEVGRKALEAGIIPAKDMTKETTITKLMWALGHTKNVEEVKEIMHTNYADEIEG
B4: L-asparaginase Tli10209 (Thermococcus litoralis DSM 5473; D50G) (protein)
chain: MSEKRKLERRGAEDMKRILIIGTGGTIASAKTDAGFKSVLTIDEILEKAGIKLKNGYEIDTRNILNIDSTLIQPEDWERIAKEVYKALEDYDGIVITHGTDTLAYTASMLTFMIRGINKPVVLTGSMRPVTEEESDAPRNLKAAIRFAMEDVSGIFVAFMDKIMLGCRTSKIRALGLNAFMSINYPDVAYVKGEEVIYNLPQKRFKPKGEPVLDTKYEPRVVFIRLTPGLDGNAIDALVKAGYRGIVLEGYGAGGIPYRKRDILSKIREITPQIPVVMTTQALYDGVDLTKYEVGRKALEAGIIPAKDMTKETTITKLMWALGHTKNVEEVKEIMHTNYADEIEG
B5: L-asparaginase Tli10209 (Thermococcus litoralis DSM 5473; F36Y/T70A) (protein)
chain: MSEKRKLERRGAEDMKRILIIGTGGTIASAKTDAGYKSVLTIDEILEKADIKLKNGYEIDTRNILNIDSALIQPEDWERIAKEVYKALEDYDGIVITHGTDTLAYTASMLTFMIRGINKPVVLTGSMRPVTEEESDAPRNLKAAIRFAMEDVSGIFVAFMDKIMLGCRTSKIRALGLNAFMSINYPDVAYVKGEEVIYNLPQKRFKPKGEPVLDTKYEPRVVFIRLTPGLDGNAIDALVKAGYRGIVLEGYGAGGIPYRKRDILSKIREITPQIPVVMTTQALYDGVDLTKYEVGRKALEAGIIPAKDMTKETTITKLMWALGHTKNVEEVKEIMHTNYADEIEG
B6: L-asparaginase Tli10209 (Thermococcus litoralis DSM 5473; F36Y) (protein)
chain: MSEKRKLERRGAEDMKRILIIGTGGTIASAKTDAGYKSVLTIDEILEKADIKLKNGYEIDTRNILNIDSTLIQPEDWERIAKEVYKALEDYDGIVITHGTDTLAYTASMLTFMIRGINKPVVLTGSMRPVTEEESDAPRNLKAAIRFAMEDVSGIFVAFMDKIMLGCRTSKIRALGLNAFMSINYPDVAYVKGEEVIYNLPQKRFKPKGEPVLDTKYEPRVVFIRLTPGLDGNAIDALVKAGYRGIVLEGYGAGGIPYRKRDILSKIREITPQIPVVMTTQALYDGVDLTKYEVGRKALEAGIIPAKDMTKETTITKLMWALGHTKNVEEVKEIMHTNYADEIEG
B7: L-asparaginase Tli10209 (Thermococcus litoralis DSM 5473; K48L) (protein)
chain: MSEKRKLERRGAEDMKRILIIGTGGTIASAKTDAGFKSVLTIDEILELADIKLKNGYEIDTRNILNIDSTLIQPEDWERIAKEVYKALEDYDGIVITHGTDTLAYTASMLTFMIRGINKPVVLTGSMRPVTEEESDAPRNLKAAIRFAMEDVSGIFVAFMDKIMLGCRTSKIRALGLNAFMSINYPDVAYVKGEEVIYNLPQKRFKPKGEPVLDTKYEPRVVFIRLTPGLDGNAIDALVKAGYRGIVLEGYGAGGIPYRKRDILSKIREITPQIPVVMTTQALYDGVDLTKYEVGRKALEAGIIPAKDMTKETTITKLMWALGHTKNVEEVKEIMHTNYADEIEG
B8: L-asparaginase Tli10209 (Thermococcus litoralis DSM 5473; T70A) (protein)
chain: MSEKRKLERRGAEDMKRILIIGTGGTIASAKTDAGFKSVLTIDEILEKADIKLKNGYEIDTRNILNIDSALIQPEDWERIAKEVYKALEDYDGIVITHGTDTLAYTASMLTFMIRGINKPVVLTGSMRPVTEEESDAPRNLKAAIRFAMEDVSGIFVAFMDKIMLGCRTSKIRALGLNAFMSINYPDVAYVKGEEVIYNLPQKRFKPKGEPVLDTKYEPRVVFIRLTPGLDGNAIDALVKAGYRGIVLEGYGAGGIPYRKRDILSKIREITPQIPVVMTTQALYDGVDLTKYEVGRKALEAGIIPAKDMTKETTITKLMWALGHTKNVEEVKEIMHTNYADEIEG

For orientation: Km means the concentration of substrate that gives half-maximal velocity. Broadly, the kcat is the maximal rate divided by the concentration of active sites. The term kcat/Km denotes the turnover number divided by the Michaelis constant.

Substrate in this data set: NC(=O)C[C@H](N)C(=O)O
As to the kind of experiment: Nessler reagent assay of ammonia, Michaelis-Menten fit. Type of data set: biochemical, Thermococcus litoralis. Particulars: pH 10, 80 °C, 0.5-18.0 mM L-asparagine, free enzyme. From the text: Nessler reagent assay of ammonia, Michaelis-Menten fit on L-asparaginase Tli10209
As for B1, the Km is reported as 2.68 mM, the kcat is 2050 s⁻¹ and the kcat/Km was 764000 M⁻¹ s⁻¹.
For B2 the same measures were 6.78 mM, 2300 s⁻¹ and 340000 M⁻¹ s⁻¹.
On to B3, for which the Km worked out at 6.65 mM, the kcat was determined as 2760 s⁻¹ and the kcat/Km amounted to 415000 M⁻¹ s⁻¹.
Take B4: the Km was 9.03 mM, the kcat turned out to be 3890 s⁻¹ and the kcat/Km is 431000 M⁻¹ s⁻¹.
For B5 the same measures were 6.28 mM, 2930 s⁻¹ and 466000 M⁻¹ s⁻¹.
For B6, the Km was 7.00 mM, the kcat came out at 2500 s⁻¹ and the kcat/Km was determined as 357000 M⁻¹ s⁻¹.
B7: the Km stood at 9.62 mM, the kcat worked out at 5080 s⁻¹ and the kcat/Km amounted to 528000 M⁻¹ s⁻¹.
Take B8: the Km is listed as 7.90 mM, the kcat is 4150 s⁻¹ and the kcat/Km was 525000 M⁻¹ s⁻¹.

The values above are taken from paper PMC11202230, “The Improved Antineoplastic Activity of Thermophilic L-Asparaginase Tli10209 via Site-Directed Mutagenesis” (Biomolecules, 2024).
